Biological target: T1, recombinant cynomolgus NKG2D-Fc fusion protein (cynomolgus; human, UniProt P61252 73-216)
T1 construct: extracellular domain; not shown: human IgG1 Fc domain
T1 sequence (looked up): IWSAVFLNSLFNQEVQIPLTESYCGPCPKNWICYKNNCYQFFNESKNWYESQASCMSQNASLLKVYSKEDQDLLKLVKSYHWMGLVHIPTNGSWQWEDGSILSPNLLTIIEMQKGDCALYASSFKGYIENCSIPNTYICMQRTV
Assay: ELISA on coated NKG2D-Fc

Row | Binder | binding result
1 | ADI-27749 (antibody, V domains shown, also called A49) VH: EVQLVESGGGLVKPGGSLRLSCAASGFTFSSYSMNWVRQAPGKGLEWVSSISSSSSYIYYADSVKGRFTISRDNAKNSLYLQMNSLRAEDTAVYYCARGAPMGAAAGWFDPWGQGTLVTVSS VL: DIQMTQSPSSVSASVGDRVTITCRASQGISSWLAWYQQKPGKAPKLLIYAASSLQSGVPSRFSGSGSGTDFTLTISSLQPEDFATYYCQQGVSFPRTFGGGTKVEIK | binds
2 | ADI-29403 (antibody, V domains shown) VH: QVQLQQWGAGLLKPSETLSLTCAVYGGSFSGYYWSWIRQPPGKGLEWIGEIDHSGSTNYNPSLKSRVTISVDTSKNQFSLKLSSVTAADTAVYYCARARGPWSFDPWGQGTLVTVSS VL: not shown | binds
3 | ADI-27705 (antibody, V domains shown) VH: QVQLQQWGAGLLKPSETLSLTCAVYGGSFSGYYWSWIRQPPGKGLEWIGEIDHSGSTNYNPSLKSRVTISVDTSKNQFSLKLSSVTAADTAVYYCARARGPWSFDPWGQGTLVTVSS VL: not shown | binds
4 | ADI-28226 (antibody, V domains shown, also called C26) VH: QVQLQQWGAGLLKPSETLSLTCAVYGGSFSGYYWSWIRQPPGKGLEWIGEIDHSGSTNYNPSLKSRVTISVDTSKNQFSLKLSSVTAADTAVYYCARARGPWSFDPWGQGTLVTVSS VL: DIQMTQSPSTLSASVGDRVTITCRASQSISSWLAWYQQKPGKAPKLLIYKASSLESGVPSRFSGSGSGTEFTLTISSLQPDDFATYYCQQYGSFPITFGGGTKVEIK | binds
5 | ADI-27741 (antibody, V domains shown) VH: QVQLQQWGAGLLKPSETLSLTCAVYGGSFSGYYWSWIRQPPGKGLEWIGEIDHSGSTNYNPSLKSRVTISVDTSKNQFSLKLSSVTAADTAVYYCARARGPWSFDPWGQGTLVTVSS VL: DIQMTQSPSTLSASVGDRVTITCRASQSIGSWLAWYQQKPGKAPKLLIYKASSLESGVPSRFSGSGSGTEFTLTISSLQPDDFATYYCQQSNSYYTFGGGTKVEIK | binds
6 | ADI-29405 (antibody, V domains shown) VH: QVQLQQWGAGLLKPSETLSLTCAVYGGSFSGYYWSWIRQPPGKGLEWIGEIDHSGSTNYNPSLKSRVTISVDTSKNQFSLKLSSVTAADTAVYYCARARGPWSFDPWGQGTLVTVSS VL: DIQMTQSPSTLSASVGDRVTITCRASQSISSWLAWYQQKPGKAPKLLIYKASSLESGVPSRFSGSGSGTEFTLTISSLQPDDFATYYCQQYGSFPTFGGGTKVEIK | binds
7 | ADI-29419 (antibody, V domains shown) VH: QVQLQQWGAGLLKPSETLSLTCAVYGGSFSGYYWSWIRQPPGKGLEWIGEIDHSGSTNYNPSLKSRVTISVDTSKNQFSLKLSSVTAADTAVYYCARARGPWSFDPWGQGTLVTVSS VL: not shown | binds
8 | ADI-27743 (antibody, V domains shown) VH: QVQLQQWGAGLLKPSETLSLTCAVYGGSFSGYYWSWIRQPPGKGLEWIGEIDHSGSTNYNPSLKSRVTISVDTSKNQFSLKLSSVTAADTAVYYCARARGPWSFDPWGQGTLVTVSS VL: not shown | binds
9 | ADI-29404 (antibody, V domains shown, also called F04) VH: QVQLQQWGAGLLKPSETLSLTCAVYGGSFSGYYWSWIRQPPGKGLEWIGEIDHSGSTNYNPSLKSRVTISVDTSKNQFSLKLSSVTAADTAVYYCARARGPWSFDPWGQGTLVTVSS VL: DIQMTQSPSTLSASVGDRVTITCRASQSISSWLAWYQQKPGKAPKLLIYKASSLESGVPSRFSGSGSGTEFTLTISSLQPDDFATYYCEQYDSYPTFGGGTKVEIK | binds
10 | ADI-27740 (antibody, V domains shown, also called A40) VH: QVQLQQWGAGLLKPSETLSLTCAVYGGSFSGYYWSWIRQPPGKGLEWIGEIDHSGSTNYNPSLKSRVTISVDTSKNQFSLKLSSVTAADTAVYYCARARGPWSFDPWGQGTLVTVSS VL: DIQMTQSPSTLSASVGDRVTITCRASQSIGSWLAWYQQKPGKAPKLLIYKASSLESGVPSRFSGSGSGTEFTLTISSLQPDDFATYYCQQYHSFYTFGGGTKVEIK | binds
11 | ADI-29447 (antibody, V domains shown, also called F47) VH: QVQLQQWGAGLLKPSETLSLTCAVYGGSFSGYYWSWIRQPPGKGLEWIGEIDHSGSTNYNPSLKSRVTISVDTSKNQFSLKLSSVTAADTAVYYCARARGPWSFDPWGQGTLVTVSS VL: DIQMTQSPSTLSASVGDRVTITCRASQSISSWLAWYQQKPGKAPKLLIYKASSLESGVPSRFSGSGSGTEFTLTISSLQPDDFATYYCQQYDTFITFGGGTKVEIK | binds
12 | ADI-29425 (antibody, V domains shown) VH: QVQLQQWGAGLLKPSETLSLTCAVYGGSFSGYYWSWIRQPPGKGLEWIGEIDHSGSTNYNPSLKSRVTISVDTSKNQFSLKLSSVTAADTAVYYCARARGPWSFDPWGQGTLVTVSS VL: not shown | binds
13 | ADI-29421 (antibody, V domains shown) VH: QVQLQQWGAGLLKPSETLSLTCAVYGGSFSGYYWSWIRQPPGKGLEWIGEIDHSGSTNYNPSLKSRVTISVDTSKNQFSLKLSSVTAADTAVYYCARARGPWSFDPWGQGTLVTVSS VL: not shown | binds
14 | ADI-29407 (antibody, V domains shown) VH: QVQLQQWGAGLLKPSETLSLTCAVYGGSFSGYYWSWIRQPPGKGLEWIGEIDHSGSTNYNPSLKSRVTISVDTSKNQFSLKLSSVTAADTAVYYCARARGPWSFDPWGQGTLVTVSS VL: DIQMTQSPSTLSASVGDRVTITCRASQSISSWLAWYQQKPGKAPKLLIYKASSLESGVPSRFSGSGSGTEFTLTISSLQPDDFATYYCQQYQSFPTFGGGTKVEIK | binds
15 | ADI-29426 (antibody, V domains shown) VH: QVQLQQWGAGLLKPSETLSLTCAVYGGSFSGYYWSWIRQPPGKGLEWIGEIDHSGSTNYNPSLKSRVTISVDTSKNQFSLKLSSVTAADTAVYYCARARGPWSFDPWGQGTLVTVSS VL: DIQMTQSPSTLSASVGDRVTITCRASQSIGSWLAWYQQKPGKAPKLLIYKASSLESGVPSRFSGSGSGTEFTLTISSLQPDDFATYYCQQYHSFPTFGGGTKVEIK | binds
16 | ADI-29424 (antibody, V domains shown) VH: QVQLQQWGAGLLKPSETLSLTCAVYGGSFSGYYWSWIRQPPGKGLEWIGEIDHSGSTNYNPSLKSRVTISVDTSKNQFSLKLSSVTAADTAVYYCARARGPWSFDPWGQGTLVTVSS VL: DIQMTQSPSTLSASVGDRVTITCRASQSISSWLAWYQQKPGKAPKLLIYKASSLESGVPSRFSGSGSGTEFTLTISSLQPDDFATYYCQQYDSFITFGGGTKVEIK | binds
17 | ADI-29399 (antibody, V domains shown) VH: QVQLQQWGAGLLKPSETLSLTCAVYGGSFSGYYWSWIRQPPGKGLEWIGEIDHSGSTNYNPSLKSRVTISVDTSKNQFSLKLSSVTAADTAVYYCARARGPWSFDPWGQGTLVTVSS VL: not shown | binds
18 | ADI-29429 (antibody, V domains shown) VH: QVQLQQWGAGLLKPSETLSLTCAVYGGSFSGYYWSWIRQPPGKGLEWIGEIDHSGSTNYNPSLKSRVTISVDTSKNQFSLKLSSVTAADTAVYYCARARGPWSFDPWGQGTLVTVSS VL: DIQMTQSPSTLSASVGDRVTITCRASQSIGSWLAWYQQKPGKAPKLLIYKASSLESGVPSRFSGSGSGTEFTLTISSLQPDDFATYYCQQYELYSYTFGGGTKVEIK | binds
19 | ADI-29401 (antibody, V domains shown) VH: QVQLQQWGAGLLKPSETLSLTCAVYGGSFSGYYWSWIRQPPGKGLEWIGEIDHSGSTNYNPSLKSRVTISVDTSKNQFSLKLSSVTAADTAVYYCARARGPWSFDPWGQGTLVTVSS VL: DIQMTQSPSTLSASVGDRVTITCRASQSIGSWLAWYQQKPGKAPKLLIYKASSLESGVPSRFSGSGSGTEFTLTISSLQPDDFATYYCQQYDIYPTFGGGTKVEIK | binds
20 | ADI-29378 (antibody, V domains shown, also called E78) VH: QVQLVQSGAEVKKPGASVKVSCKASGYTFTSYYMHWVRQAPGQGLEWMGIINPSGGSTSYAQKFQGRVTMTRDTSTSTVYMELSSLRSEDTAVYYCAREGAGFAYGMDYYYMDVWGKGTTVTVSS VL: EIVLTQSPATLSLSPGERATLSCRASQSVSSYLAWYQQKPGQAPRLLIYDASNRATGIPARFSGSGSGTDFTLTISSLEPEDFAVYYCQQSDNWPFTFGGGTKVEIK | binds
21 | ADI-27727 (antibody, V domains shown) VH: QVQLVQSGAEVKKPGSSVKVSCKASGGTFSSYAISWVRQAPGQGLEWMGGIIPIFGTANYAQKFQGRVTITADESTSTAYMELSSLRSEDTAVYYCARGDSSIRHAYYYYGMDVWGQGTTVTVSS VL: not shown | binds
